Several values for one entry are separate records, joined by “and”; a condition that tells them apart may be missing. Identical values can stand only once.

For the test, the target named is V2E FP_HM (HIV gp41 ectodomain construct FP_HM with the V2E mutation) (HIV (HXB2 laboratory strain)). In words: SEC. A general note: In gel filtration, larger molecules generally elute earlier.

As for “V2E FP_HM (HIV gp41 ectodomain construct FP_HM with the V2E mutation) (domain or fragment)”, the stoichiometry N – broadly, the number of molecules, sites or subunits per partner or assembly – was 3 and 6.

The record behind these values is article PMC9879285.
